Results from the supplement of paper PMC7877785.
± gives the uncertainty stated by the source.

Test: self-splicing fitness, log relative to wild type (ln ratio); higher = more splicing; Tetrahymena group I intron in knt gene, E. coli kanamycin selection, DiMSum; sequences stand for … in CUCUCU…GGAGGGAAAAGUUAUCAGGCAUGCACCUGGUAGCUAGUCUUUAAACCAAUAGAUUGCAUCGGUUUAAAAGGCAAGACCGUCAAAUUGCGGGAAAGGGGUCAACAGCCGUUCAGUACCAAGUCUCAGGGGAAACUUUGAGAUGGCCUUGCAAAGGGUAUGGUAAUAAGCUGACGGACAUGGUCCUAACCACGCAGCCAAGUCCUAAGUCAACAGAUCUUCUGUUGAUAUGGAUGCAGUUCACAGACUAAAUGUCGGUCGGGGAAGAUGUAUUCUUCUCAUAAGAUAUAGUCGGACCUCUCCUUAAUGGGAGCUAGCGGAUGAAGUGAUGCAACACUGGAGCCGCUGGGAACUAAUUUGUAUGCGAAAGUAUAUUGAUUAGUUUUGGAGUACUCGUGGUCG
Outline: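 Six replicate transformations of E. coli BL21(DE3) with a pET-22b(+) library were grown overnight at 37°C or 30°C. The library randomised all eight P1ex-region intron nucleotides, the intron lying in the knt kanamycin-resistance gene, and plates were LB agar with or without 25 μg/mL kanamycin plus 100 μg/mL carbenicillin, 50 μM IPTG and 0.2% rhamnose. Pooled colonies were amplicon-sequenced on an Illumina HiSeq 2500, and fitness is the DiMSum error-weighted combination of wild-type-normalised replicate fold changes, kanamycin versus none.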

Sequence	self-splicing fitness (ln) (30 °C)	self-splicing fitness (ln) (37 °C)
CCCUAGCAAUAUUACGCGCA	-2.49 ± 0.45	-1.72 ± 0.32
CCCUAGCAAUAUUACGGAGA	-4.85 ± 0.46	-2.68 ± 0.2
CCCUAGCAAUAUUACGGAUC	-4.33 ± 0.39	-1.71 ± 0.25
CCCUAGCAAUAUUACGGGGU	-2.49 ± 0.092	-2.91 ± 0.12
CCCUAGCAAUAUUACGGUCC	-3.45 ± 0.22	-1.51 ± 0.28
CCCUAGCAAUAUUACGUCGA	-3.58 ± 0.21	-2.51 ± 0.19
CCCUAGCAAUAUUACGUCUU	-2.95 ± 0.13	-2.54 ± 0.25
CCCUAGCAAUAUUACGUGAA	-2.8 ± 0.16	-2.62 ± 0.2
CCCUAGCAAUAUUACGUGGC	-3.35 ± 0.18	-2.68 ± 0.16
CCCUAGCAAUAUUACGUGUU	-4.27 ± 0.18	-3.37 ± 0.17
CCCUAGCAAUAUUACGUUAC	-4.52 ± 0.29	-2.53 ± 0.27
CCCUAGCAAUAUUACGUUAG	-3.73 ± 0.22	-2.36 ± 0.18
CCCUAGCAAUAUUACGUUGC	-3.75 ± 0.29	-1.82 ± 0.18
CCGAAGCAAUAUUACGAACU	-3.08 ± 0.29	-2.17 ± 0.46
CCGAAGCAAUAUUACGAAUU	-3.28 ± 0.4	-2.87 ± 0.28
CCGAAGCAAUAUUACGACAA	-3.59 ± 0.4	-2.52 ± 0.29
CCGAAGCAAUAUUACGACUC	-3.36 ± 0.32	–
CCGAAGCAAUAUUACGAGUU	-2.77 ± 0.1	-2.96 ± 0.17
CCGAAGCAAUAUUACGAUCG	-0.383 ± 0.065	-0.283 ± 0.076
CCGAAGCAAUAUUACGAUGG	-3.47 ± 0.19	-3.7 ± 0.2
CCGAAGCAAUAUUACGCACC	-2.46 ± 0.19	-2.25 ± 0.5
CCGAAGCAAUAUUACGCACG	-1.19 ± 0.074	-0.509 ± 0.092
CCGAAGCAAUAUUACGCGCU	–	-2.26 ± 0.42
CCGAAGCAAUAUUACGCGGC	-3.55 ± 0.28	-2.27 ± 0.3
CCGAAGCAAUAUUACGCUCC	-2.86 ± 0.44	–

Sequence	self-splicing fitness (ln) (30 °C)	self-splicing fitness (ln) (37 °C)
CCGAAGCAAUAUUACGCUUC	-3.15 ± 0.27	-3.2 ± 0.34
CCGAAGCAAUAUUACGGAGU	-1.88 ± 0.16	-2.98 ± 0.25
CCGAAGCAAUAUUACGGGAU	-3.69 ± 0.26	-2.47 ± 0.22
CCGAAGCAAUAUUACGGGCG	-0.886 ± 0.066	-0.235 ± 0.074
CCGAAGCAAUAUUACGGUAG	-2.87 ± 0.11	-1.3 ± 0.095
CCGAAGCAAUAUUACGUAAU	-3.37 ± 0.24	-2.54 ± 0.18
CCGAAGCAAUAUUACGUACA	-3.19 ± 0.43	-1.75 ± 0.34
CCGAAGCAAUAUUACGUCCG	-0.46 ± 0.11	-0.429 ± 0.095
CCGAAGCAAUAUUACGUCGU	-1.94 ± 0.074	-0.687 ± 0.077
CCGCAGCAAUAUUACGCACA	-2.51 ± 0.19	-1.48 ± 0.17
CCGCAGCAAUAUUACGCAGC	-3.86 ± 0.28	-1.62 ± 0.19
CCGCAGCAAUAUUACGCGGC	-4.42 ± 0.42	-2.55 ± 0.29
CCGCAGCAAUAUUACGGAAU	-4.02 ± 0.25	-2.89 ± 0.34
CCGCAGCAAUAUUACGGGCA	-2.72 ± 0.17	-2.43 ± 0.18
CCGCAGCAAUAUUACGGGGC	-3.25 ± 0.24	-2.21 ± 0.28
CCGCAGCAAUAUUACGGGGU	-3.54 ± 0.14	-2.21 ± 0.13
CCGCAGCAAUAUUACGUCUG	-3.34 ± 0.17	-3.13 ± 0.18
CCGCAGCAAUAUUACGUGGU	-3.29 ± 0.13	-2.25 ± 0.13
CCGCAGCAAUAUUACGUUUC	-3.08 ± 0.31	-2.93 ± 0.29
CCGGAGCAAUAUUACGAAGU	-4.05 ± 0.26	-1.53 ± 0.23
CCGGAGCAAUAUUACGAGCA	–	-0.395 ± 0.25
CCGGAGCAAUAUUACGCAAC	-1.66 ± 0.4	-2.92 ± 0.47
CCGGAGCAAUAUUACGCAGC	–	-2.52 ± 0.37
CCGGAGCAAUAUUACGCCCA	-3.21 ± 0.32	-2.06 ± 0.43
CCGGAGCAAUAUUACGCGUU	-2.5 ± 0.28	-2.28 ± 0.24

Sequence	self-splicing fitness (ln) (30 °C)	self-splicing fitness (ln) (37 °C)
CCGGAGCAAUAUUACGCUUU	-4.14 ± 0.3	-2.47 ± 0.17
CCGGAGCAAUAUUACGGCCU	-4.41 ± 0.28	-3.79 ± 0.23
CCGGAGCAAUAUUACGGGAG	-3.98 ± 0.27	-2.13 ± 0.26
CCGGAGCAAUAUUACGGGGA	-2.97 ± 0.2	-2.73 ± 0.3
CCGGAGCAAUAUUACGGUCA	-4.22 ± 0.47	–
CCGGAGCAAUAUUACGGUGU	-3.21 ± 0.16	-2.13 ± 0.19
CCGGAGCAAUAUUACGGUUU	-3.33 ± 0.25	-2.55 ± 0.18
CCGGAGCAAUAUUACGUAAU	-3.95 ± 0.15	-3.36 ± 0.23
CCGGAGCAAUAUUACGUACG	-0.407 ± 0.14	-0.609 ± 0.18
CCGGAGCAAUAUUACGUCAG	-1.42 ± 0.12	-1.17 ± 0.15
CCGGAGCAAUAUUACGUGUC	-3.36 ± 0.14	-2.82 ± 0.14
CCGGAGCAAUAUUACGUUAA	-2.42 ± 0.26	-1.93 ± 0.41
CCGGAGCAAUAUUACGUUAG	-1.47 ± 0.078	-0.769 ± 0.11
CCGGAGCAAUAUUACGUUCU	-1.23 ± 0.14	–
CCGGAGCAAUAUUACGUUUU	-3.67 ± 0.3	-2.6 ± 0.38
CCGUAGCAAUAUUACGACCG	-0.302 ± 0.12	0.31 ± 0.2
CCGUAGCAAUAUUACGAGCA	–	-1.37 ± 0.33
CCGUAGCAAUAUUACGAGGU	-3.33 ± 0.19	-2.46 ± 0.22
CCGUAGCAAUAUUACGAGUU	-3.11 ± 0.15	-3.07 ± 0.18
CCGUAGCAAUAUUACGAUAG	-1.22 ± 0.29	-0.918 ± 0.18
CCGUAGCAAUAUUACGCCGA	-2.64 ± 0.22	-1.99 ± 0.19
CCGUAGCAAUAUUACGCCGC	-3.84 ± 0.26	-2.68 ± 0.34
CCGUAGCAAUAUUACGCGUC	-3.42 ± 0.15	-1.78 ± 0.15
CCGUAGCAAUAUUACGGGGU	-3.96 ± 0.24	-1.71 ± 0.2
CCGUAGCAAUAUUACGGUAC	-3.37 ± 0.3	–

Sequence	self-splicing fitness (ln) (30 °C)	self-splicing fitness (ln) (37 °C)
CCGUAGCAAUAUUACGUAAA	-3.22 ± 0.13	-2.38 ± 0.23
CCGUAGCAAUAUUACGUCUU	-4.01 ± 0.34	-2.96 ± 0.23
CCGUAGCAAUAUUACGUGUG	-2.36 ± 0.095	-1.06 ± 0.082
CCGUAGCAAUAUUACGUGUU	-3.35 ± 0.2	-2.47 ± 0.18
CCGUAGCAAUAUUACGUUUG	-1 ± 0.081	-0.134 ± 0.096
CCUAAGCAAUAUUACGAAAG	-1.75 ± 0.18	0.000192 ± 0.18
CCUAAGCAAUAUUACGAAUU	-3.89 ± 0.22	-1.79 ± 0.21
CCUAAGCAAUAUUACGACGA	-2.67 ± 0.24	-2.1 ± 0.38
CCUAAGCAAUAUUACGACGU	-3.61 ± 0.29	-2.17 ± 0.22
CCUAAGCAAUAUUACGAGGA	-1.99 ± 0.15	-1.85 ± 0.13
CCUAAGCAAUAUUACGAGUU	-4.08 ± 0.2	-2.22 ± 0.14
CCUAAGCAAUAUUACGAUGA	-3.09 ± 0.21	-1.84 ± 0.18
CCUAAGCAAUAUUACGCAUU	-3.56 ± 0.29	-2.2 ± 0.27
CCUAAGCAAUAUUACGCCAG	-2.8 ± 0.26	-2.13 ± 0.29
CCUAAGCAAUAUUACGCCAU	-4.47 ± 0.46	-2.48 ± 0.34
CCUAAGCAAUAUUACGCCCG	-2.22 ± 0.22	-0.795 ± 0.26
CCUAAGCAAUAUUACGCCGG	-3.61 ± 0.24	-2.57 ± 0.21
CCUAAGCAAUAUUACGCCUA	-2.7 ± 0.21	-2.24 ± 0.28
CCUAAGCAAUAUUACGCGUC	-3.25 ± 0.16	-1.95 ± 0.17
CCUAAGCAAUAUUACGCUGU	-3.8 ± 0.33	-2.61 ± 0.33
CCUAAGCAAUAUUACGGCAG	-2.09 ± 0.084	-1.21 ± 0.098
CCUAAGCAAUAUUACGGCCA	-2.55 ± 0.22	-2.58 ± 0.26
CCUAAGCAAUAUUACGGCGU	-4.15 ± 0.3	-2.49 ± 0.24
